Measurements as given in patent US20100223690A1, “COMPOSITIONS AND METHODS FOR MODULATING PLANT DISEASE RESISTANCE AND IMMUNITY” (Washington State University, published 2010).
Residue numbers refer to the chain shown, from its start. Values belong to the molecule of their own block, whether it stands above or below them.

Assays:
[1] = biological target: Ca2+/calmodulin (endogenous, in Arabidopsis plants) (Arabidopsis thaliana); test: cell-based or functional assay
[2] = biological target: T1, AtSR1 (CAMTA3) CG-1 DNA-binding domain (Arabidopsis thaliana, UniProt Q8GSA7 SEQ:1-153); test: EMSA; Ca2+/CaM-independent; conditions: tags: 6xHis (pET32a)
T1 sequence: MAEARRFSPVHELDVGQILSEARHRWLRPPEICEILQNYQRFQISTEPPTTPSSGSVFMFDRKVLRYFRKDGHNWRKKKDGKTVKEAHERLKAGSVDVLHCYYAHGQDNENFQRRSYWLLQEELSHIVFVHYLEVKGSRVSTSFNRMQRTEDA
Experimental: (§1) The E. coli strain BL21(DE3)/pLysS carrying the above pET32a derived plasmids for expression of recombinant proteins of the wild-type and mutated versions of AtSR1, AtSR6 or ABF1 were induced with 0.5 mM IPTG for 3 hours. 6×His tagged recombinant proteins were purified using Ni-NTA agarose affinity beads (Qiagen) as described by the manufacturer. Recombinant AtSR1 or AtSR6 covering CG-1 domain, or ABF1 was used for EMSA³² to detect its interaction with WT or mutated EDS1 promoter fragments. Recombinant AtSR1 containing CaMBD was used for CaM overlay assay³⁸.

[3] = biological target: T1, AtSR1 (CAMTA3) CG-1 DNA-binding domain; test: EMSA; binding is ACGCGT-dependent; conditions: tags: 6xHis (pET32a)
Experimental: as §1

level of SA in complemented plants [1]: 60 % of WT
Molecule: full-length AtSR1 I909V fused to Flag tag, expressed from 35S::AtSR1I909V in atsr1-1 plants (from UniProt Q8GSA7 1-1032)

level of SA in complemented plants [1]: 60 % of WT
Molecule: full-length wild-type AtSR1 fused to Flag tag, expressed from 35S::AtSR1 in atsr1-1 plants (from UniProt Q8GSA7 1-1032)

B1: EDS1P probe (-762 to -731) (dsDNA)
DNA 1: GTAAAAGTCGAATGTGACGCGTCTTGCCGAAC
DNA 2: GTTCGGCAAGACGCGTCACATTCGACTTTTAC
binding result [2]: binds

B2: eds1p mutant probe (dsDNA)
DNA 1: B1 DNA 1 with G19C
DNA 2: B1 DNA 2 with C14G
modifications: [19 (G>C)]
binding result [3]: no binding
